The subject of this series is Escherichia coli TOP10. Put plainly: shrunken log2 fold change of peptide-encoding DNA abundance (4.5 h post-induction vs induction); higher = less antimicrobial activity (less host growth inhibition). The following applies: time post-induction: 4.5 h; library: site-saturation at positions 5, 18, 19, 20.
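Note: peptides expressed intracellularly from a pBAD plasmid library in pooled LB shake-flask culture, induced with 0.3% L-arabinose, DNA abundance read by NGS, three biological replicates, DESeq2 with apeglm shrinkage.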

Take RRIRCRPPRLPRPRPRPMDTPRP: the “shrunken log2 fold change” value was 0.0459.

Take RRIRLRPPRLPRPRPRPACAPRP: the “shrunken log2 fold change” value stood at 0.541.

Turning to RRIRWRPPRLPRPRPRPYDNPRP, the “shrunken log2 fold change” value was -0.263.

Turning to RRIRNRPPRLPRPRPRPLTHPRP, the “shrunken log2 fold change” value was -0.566.

Consider RRIRLRPPRLPRPRPRPLENPRP, for which the “shrunken log2 fold change” value turned out to be 0.0938.

Take RRIRFRPPRLPRPRPRPMICPRP: the “shrunken log2 fold change” value is -0.303.

With RRIRWRPPRLPRPRPRPIYNPRP, the “shrunken log2 fold change” value is -0.896.

RRIRCRPPRLPRPRPRPKVHPRP: the “shrunken log2 fold change” value is -0.0287.

On to RRIRRRPPRLPRPRPRPDCPPRP, for which the “shrunken log2 fold change” value stood at 0.4.

Take RRIRHRPPRLPRPRPRPFGLPRP: the “shrunken log2 fold change” value is -0.0904.

With RRIRWRPPRLPRPRPRPNSSPRP, the “shrunken log2 fold change” value is -0.0636.

For the sequence RRIRMRPPRLPRPRPRPVPYPRP, the “shrunken log2 fold change” value turned out to be 0.193.

As for RRIRLRPPRLPRPRPRPLWVPRP, the “shrunken log2 fold change” value was 0.0349.

For the sequence RRIRDRPPRLPRPRPRPHSEPRP, the “shrunken log2 fold change” value stood at 0.00449.

On to RRIRFRPPRLPRPRPRPPDNPRP, for which the “shrunken log2 fold change” value was -0.115.

With RRIRCRPPRLPRPRPRPDTFPRP, the “shrunken log2 fold change” value came out at 0.0257.

Take RRIRIRPPRLPRPRPRPGGKPRP: the “shrunken log2 fold change” value was -0.31.

On to RRIRKRPPRLPRPRPRPGFYPRP, for which the “shrunken log2 fold change” value came to 0.00129.

For the sequence RRIRNRPPRLPRPRPRPHRYPRP, the “shrunken log2 fold change” value was -0.345.

For the sequence RRIRPRPPRLPRPRPRPYVMPRP, the “shrunken log2 fold change” value is -0.706.

In the case of RRIRLRPPRLPRPRPRPSVIPRP, the “shrunken log2 fold change” value was -0.183.

On to RRIRVRPPRLPRPRPRPVVVPRP, for which the “shrunken log2 fold change” value is -0.194.

As to RRIRPRPPRLPRPRPRPYITPRP, the “shrunken log2 fold change” value was -0.739.

As to RRIRARPPRLPRPRPRPLNEPRP, the “shrunken log2 fold change” value was found to be 0.137.

On to RRIRQRPPRLPRPRPRPGSSPRP, for which the “shrunken log2 fold change” value is -0.172.

Take RRIRQRPPRLPRPRPRPSKQPRP: the “shrunken log2 fold change” value is -0.0831.

Consider RRIRFRPPRLPRPRPRPDMYPRP, for which the “shrunken log2 fold change” value is -0.00804.

For RRIRERPPRLPRPRPRPFIAPRP, the “shrunken log2 fold change” value is -0.2.

RRIRYRPPRLPRPRPRPTVYPRP: the “shrunken log2 fold change” value is -0.686.

For the sequence RRIRVRPPRLPRPRPRPIQWPRP, the “shrunken log2 fold change” value came out at 0.138.

In the case of RRIRPRPPRLPRPRPRPHDPPRP, the “shrunken log2 fold change” value came to 0.192.

In the case of RRIRIRPPRLPRPRPRPAHRPRP, the “shrunken log2 fold change” value was -0.133.

As for RRIRLRPPRLPRPRPRPQMSPRP, the “shrunken log2 fold change” value was -0.111.

RRIRGRPPRLPRPRPRPCRHPRP: the “shrunken log2 fold change” value came to 0.0672.

As for RRIRIRPPRLPRPRPRPCLNPRP, the “shrunken log2 fold change” value is -0.0496.

Take RRIRDRPPRLPRPRPRPGLSPRP: the “shrunken log2 fold change” value is 0.241.

Take RRIRPRPPRLPRPRPRPLCHPRP: the “shrunken log2 fold change” value is -0.139.

Consider RRIRIRPPRLPRPRPRPWTGPRP, for which the “shrunken log2 fold change” value was -0.0257.

For RRIRPRPPRLPRPRPRPYEAPRP, the “shrunken log2 fold change” value was -0.282.

For RRIRRRPPRLPRPRPRPCLWPRP, the “shrunken log2 fold change” value was 0.407.

On to RRIRHRPPRLPRPRPRPEQTPRP, for which the “shrunken log2 fold change” value was -0.01.

Consider RRIRQRPPRLPRPRPRPNQSPRP, for which the “shrunken log2 fold change” value was -0.0722.

As to RRIRRRPPRLPRPRPRPHMTPRP, the “shrunken log2 fold change” value is 0.00051.

Consider RRIRIRPPRLPRPRPRPWRCPRP, for which the “shrunken log2 fold change” value was -0.107.

In the case of RRIRRRPPRLPRPRPRPCGFPRP, the “shrunken log2 fold change” value worked out at 0.265.

With RRIRQRPPRLPRPRPRPDAPPRP, the “shrunken log2 fold change” value was found to be 0.655.

As to RRIRDRPPRLPRPRPRPNTRPRP, the “shrunken log2 fold change” value is -0.238.

RRIRARPPRLPRPRPRPVRKPRP: the “shrunken log2 fold change” value came to 0.763.

On to RRIRWRPPRLPRPRPRPDKHPRP, for which the “shrunken log2 fold change” value was -0.243.

With RRIRTRPPRLPRPRPRPYFKPRP, the “shrunken log2 fold change” value was -0.577.

In the case of RRIRFRPPRLPRPRPRPWKGPRP, the “shrunken log2 fold change” value is -0.0869.

On to RRIRDRPPRLPRPRPRPFMQPRP, for which the “shrunken log2 fold change” value is 0.0183.

As for RRIRQRPPRLPRPRPRPTTSPRP, the “shrunken log2 fold change” value came out at 0.1.

For RRIRFRPPRLPRPRPRPGTFPRP, the “shrunken log2 fold change” value is -0.492.

With RRIRRRPPRLPRPRPRPMPHPRP, the “shrunken log2 fold change” value is -0.124.

Consider RRIRYRPPRLPRPRPRPREVPRP, for which the “shrunken log2 fold change” value was 0.00495.

In the case of RRIRWRPPRLPRPRPRPQGPPRP, the “shrunken log2 fold change” value is 1.32.

RRIRGRPPRLPRPRPRPKLDPRP: the “shrunken log2 fold change” value was 1.2.

On to RRIRMRPPRLPRPRPRPTNFPRP, for which the “shrunken log2 fold change” value was -0.0912.

On to RRIRNRPPRLPRPRPRPSHIPRP, for which the “shrunken log2 fold change” value was -0.69.

As to RRIRIRPPRLPRPRPRPMGGPRP, the “shrunken log2 fold change” value was 0.38.

For the sequence RRIRWRPPRLPRPRPRPEYMPRP, the “shrunken log2 fold change” value is -0.0342.

On to RRIRCRPPRLPRPRPRPKKCPRP, for which the “shrunken log2 fold change” value was -0.186.

Turning to RRIRHRPPRLPRPRPRPLEFPRP, the “shrunken log2 fold change” value was determined as 0.0369.

Regarding RRIRRRPPRLPRPRPRPSLWPRP, the “shrunken log2 fold change” value was found to be 0.293.

As to RRIRQRPPRLPRPRPRPCTNPRP, the “shrunken log2 fold change” value is -0.359.

In the case of RRIRARPPRLPRPRPRPSMTPRP, the “shrunken log2 fold change” value was 0.2.

Take RRIRHRPPRLPRPRPRPYVYPRP: the “shrunken log2 fold change” value is -0.0796.

As to RRIRTRPPRLPRPRPRPSHVPRP, the “shrunken log2 fold change” value amounted to 2.39.

As for RRIRMRPPRLPRPRPRPKRYPRP, the “shrunken log2 fold change” value worked out at 0.407.

As to RRIRWRPPRLPRPRPRPCAHPRP, the “shrunken log2 fold change” value is -0.107.

For the sequence RRIRCRPPRLPRPRPRPRQIPRP, the “shrunken log2 fold change” value amounted to 0.192.

As for RRIRLRPPRLPRPRPRPQTSPRP, the “shrunken log2 fold change” value is -0.106.

Take RRIRSRPPRLPRPRPRPHVCPRP: the “shrunken log2 fold change” value came to 0.0517.

Take RRIRDRPPRLPRPRPRPFTTPRP: the “shrunken log2 fold change” value was -0.132.

With RRIRKRPPRLPRPRPRPTLKPRP, the “shrunken log2 fold change” value was 0.601.

As for RRIRLRPPRLPRPRPRPFQDPRP, the “shrunken log2 fold change” value turned out to be 0.000192.

On to RRIRMRPPRLPRPRPRPCRHPRP, for which the “shrunken log2 fold change” value was -0.0252.

For the sequence RRIRQRPPRLPRPRPRPSCGPRP, the “shrunken log2 fold change” value was 0.117.

As for RRIRARPPRLPRPRPRPRTVPRP, the “shrunken log2 fold change” value is 0.457.

As for RRIRKRPPRLPRPRPRPTNHPRP, the “shrunken log2 fold change” value was -0.0148.

For the sequence RRIRMRPPRLPRPRPRPTMAPRP, the “shrunken log2 fold change” value was 1.03.

With RRIRHRPPRLPRPRPRPQQKPRP, the “shrunken log2 fold change” value was -0.0153.

On to RRIRDRPPRLPRPRPRPIHYPRP, for which the “shrunken log2 fold change” value was -0.0149.

With RRIRSRPPRLPRPRPRPSAQPRP, the “shrunken log2 fold change” value stood at 0.198.

Turning to RRIRSRPPRLPRPRPRPYWRPRP, the “shrunken log2 fold change” value is -0.21.

RRIRTRPPRLPRPRPRPYPKPRP: the “shrunken log2 fold change” value was -0.0976.

Turning to RRIRVRPPRLPRPRPRPMGNPRP, the “shrunken log2 fold change” value was -0.0915.

RRIRVRPPRLPRPRPRPPHWPRP: the “shrunken log2 fold change” value came to 0.489.

With RRIRWRPPRLPRPRPRPQKEPRP, the “shrunken log2 fold change” value came to 0.0282.

As to RRIRLRPPRLPRPRPRPELSPRP, the “shrunken log2 fold change” value is -0.113.

In the case of RRIRLRPPRLPRPRPRPPCSPRP, the “shrunken log2 fold change” value is -0.0182.

For the sequence RRIRCRPPRLPRPRPRPLTPPRP, the “shrunken log2 fold change” value was determined as 0.292.

In the case of RRIRCRPPRLPRPRPRPSQAPRP, the “shrunken log2 fold change” value was -0.0139.

For the sequence RRIRSRPPRLPRPRPRPAPKPRP, the “shrunken log2 fold change” value amounted to 0.569.

For RRIRDRPPRLPRPRPRPIEIPRP, the “shrunken log2 fold change” value was -0.298.

Consider RRIRGRPPRLPRPRPRPDHVPRP, for which the “shrunken log2 fold change” value was determined as 0.0598.

Consider RRIRHRPPRLPRPRPRPYLNPRP, for which the “shrunken log2 fold change” value was -1.2.

RRIRIRPPRLPRPRPRPWHFPRP: the “shrunken log2 fold change” value is -0.0737.

Regarding RRIRVRPPRLPRPRPRPCVFPRP, the “shrunken log2 fold change” value is -0.00495.

As for RRIRCRPPRLPRPRPRPWHNPRP, the “shrunken log2 fold change” value is -0.244.

RRIRQRPPRLPRPRPRPSAYPRP: the “shrunken log2 fold change” value was -0.247.

For the sequence RRIRCRPPRLPRPRPRPYYCPRP, the “shrunken log2 fold change” value was -1.03.

Consider RRIRPRPPRLPRPRPRPSMLPRP, for which the “shrunken log2 fold change” value was -0.186.

With RRIRTRPPRLPRPRPRPPQDPRP, the “shrunken log2 fold change” value turned out to be 0.608.

Regarding RRIRSRPPRLPRPRPRPITDPRP, the “shrunken log2 fold change” value is -0.0789.

For the sequence RRIRTRPPRLPRPRPRPNWIPRP, the “shrunken log2 fold change” value is -0.289.

As for RRIRMRPPRLPRPRPRPFFRPRP, the “shrunken log2 fold change” value amounted to 0.406.

On to RRIRPRPPRLPRPRPRPRPVPRP, for which the “shrunken log2 fold change” value is 0.528.

For the sequence RRIRHRPPRLPRPRPRPPLNPRP, the “shrunken log2 fold change” value was -0.0242.

Take RRIRCRPPRLPRPRPRPRNHPRP: the “shrunken log2 fold change” value was -0.0709.

Take RRIRARPPRLPRPRPRPGSQPRP: the “shrunken log2 fold change” value was determined as 0.368.

As to RRIRNRPPRLPRPRPRPEGQPRP, the “shrunken log2 fold change” value was -0.00174.

Turning to RRIRVRPPRLPRPRPRPFGFPRP, the “shrunken log2 fold change” value is -0.294.

RRIRYRPPRLPRPRPRPDQPPRP: the “shrunken log2 fold change” value worked out at 0.0375.

With RRIRRRPPRLPRPRPRPWRKPRP, the “shrunken log2 fold change” value was 0.302.

On to RRIRKRPPRLPRPRPRPQIQPRP, for which the “shrunken log2 fold change” value is 0.0528.

Take RRIRRRPPRLPRPRPRPRQWPRP: the “shrunken log2 fold change” value was determined as 0.169.

RRIRDRPPRLPRPRPRPFPEPRP: the “shrunken log2 fold change” value was -0.144.

RRIRHRPPRLPRPRPRPDIQPRP: the “shrunken log2 fold change” value is -0.0379.

Consider RRIRTRPPRLPRPRPRPFESPRP, for which the “shrunken log2 fold change” value came out at 0.0313.

In the case of RRIRVRPPRLPRPRPRPTRKPRP, the “shrunken log2 fold change” value is 0.575.

With RRIRPRPPRLPRPRPRPIIDPRP, the “shrunken log2 fold change” value is -0.297.

On to RRIRYRPPRLPRPRPRPILWPRP, for which the “shrunken log2 fold change” value is -0.0119.

Turning to RRIRKRPPRLPRPRPRPIGWPRP, the “shrunken log2 fold change” value was determined as 0.7.

The values are drawn from the supplement of paper PMC9112550, “Optimization of the antimicrobial peptide Bac7 by deep mutational scanning” (BMC Biology, 2022).
